The values that follow come from patent US12571800B2, “Means and methods for treating angiogenesis-related diseases” (Heidelberg Biotech GmbH, priority 2011, dated 2026).

The subject of one data set is solid tumors. The following applies: cited from earlier work.
Data set [1] has as its system human umbilical vein endothelial cells (HUVECs). The following applies: in vitro; cited from earlier work.
Another data set has as its system rat aortic rings. The following applies: in vitro; cited from earlier work.
Data set [2] deals with chicken chorioallantoic membrane. Particulars: CAM assay; cited from earlier work.
Data set [3] has as its target T1, fibronectin (Homo sapiens, UniProt P02751). The experiment in a line: Biacore (SPR) equilibrium binding constants to fibronectin. The following applies: fibronectin 0.78 nM-100 nM over immobilized protein; values only in FIG. 1C. The protocol: Fibronectin samples were prepared by serial dilution into 0.01 M Hepes, pH 7.4, 0.15 M NaCl, 0.05% Surfactant containing 1 mg/ml BSA in the range 0.78 nM-100 nM and flowed over control and derivatized surfaces for three minutes at a flow-rate of 60 μl/min. Dissociation phases were monitored for 5 minutes. Zero concentration blank buffer cycles were included as negative control samples. Sensor surfaces were regenerated using a 1 minute injection of 1 M ethanolamine, pH 8.5 following each interaction analysis cycle. Non-specific binding effects to sensor surface CM4 were not observed. Calculated ka, kd and KD are shown. Different curves correspond to different concentrations of fibronectin.
1.3 Surface Plasmon Resonance (SPR) binding assays. This analysis provides for a unique method for measuring equilibrium constants between two binding partners. It is able to evaluate the kinetics of an interaction by recording the rates of complex formation (ka) and dissociation (kd) followed by employing a software which determines the values of these two parameters. Equilibrium constant (KD) is obtained by calculating the ration of kd/ka Human VEGF (R&D), endostatin, endostatin dimer and human NC-1 (hNC-1) were diluted to 50 μg/ml in 10 mM Sodium Acetate, pH 5.5 and immobilized onto series S sensor chip(s) CM4 via a standard N-ethyl-N′-(dimethyl-aminopropyl)carbodiimide/N-hydroxysuccinimide (EDC/NHS) amine coupling procedures. Control surfaces were prepared similarly without protein derivatization and utilized as a reference surface for compound binding experiments.
Binding measurements were performed using a Biacore™ (GE Healthcare, Uppsala, Sweden) instrument which employs surface plasmon resonance to detect and monitor molecular interactions.
Data analysis was carried out using Biacore T100 evaluation software v1.1.1. Data were prepared by subtraction of reference surface data and blank buffer sample data, a procedure commonly referred to as ‘double referencing’ and fitted to a 1:1 langmuir binding model.
In order to measure equilibrium binding constants for the above proteins, a Biacore system was employed. […] Fc-endostatin imposes a dimeric structure on the two molecules of endostatin at the C-terminus of Fc dimer.

Data set [4] relates to human melanoma cancer cells (A2058). The experiment in a line: A2058 human melanoma tumors in nude mice. Type of data set: in vivo. The protocol:
4-6 tumor-bearing nude mice in each group were subcutaneously (s.c.) treated with hNC-1 (100 μg/mouse once a day), clinical-grade endostatin (100 and 500 μg/mouse once a day) or PBS. Treatment was stopped prior to the development of necrosis. Sites of injection were away from tumors. Tumor sizes and the ratio of treated/control (T/C) is shown.
1.4 Animal and tumor models. All animal procedures were carried out in compliance with Children's Hospital Boston guidelines Protocols were approved by the Institutional Animal Care and Use Committee. Eight-week-old male (24-27 g) nude/nude mice (Massachusetts General Hospital, Boston, MA) were used. Mice were acclimated, caged in groups of five in a barrier care facility, and fed animal chow and water ad libitum. Animals were euthanized by CO2 inhalation. Human melanoma cell line A2058 was used for animal studies. A suspension of 2×10^6 tumor cells in 0.1 ml of PBS was injected subcutaneously (s.c.) into the dorsa of mice at the proximal midline. Mice were weighed and tumors were monitored twice a week in two diameters with digital calipers. Tumor volumes were determined using a^2×b×0.52 (where a is the shortest and b is the longest diameter). Tumors were allowed to grow to ˜100 mm^3 and mice were randomized. Treatment was by bolus s.c. injections. After experiments were completed, tumors and organs were excised and fixed in either 4% paraformaldehyde or were snap frozen. Four to six mice were treated with each group.
2.6 hNC-1 suppresses tumor growth in vivo. In order to compare anti-tumor activities of NC-1 and endostatin, nude mice bearing human melanoma cell line A2058 were employed. Two doses of clinical grade endostatin differing by 5-fold in concentration of protein (low and high doses) were used. […] It cannot be ruled out the possibility that injected NC-1 becomes degraded upon entering the circulation.

The test system of data set [5] is HUVECs. The experiment in a line: Endothelial cell migration assay (transwell, VEGF-induced). Format: cell-based, human. The protocol: HUVECs were plated into 24-well inserts of transwell plate in duplication. The lower chamber was filled with serum free medium containing 100 ng/ml […] VEGF (rhVEGF) plus different concentrations of hNC-1. After incubation for 16 h at 37° C., the cells were fixed and stained. […] Endostatin monomer, dimer and NC-1 were used for comparison (c).
1.7 Endothelial cell migration assay. HUVECs were washed by serum free EBM medium twice, re-suspended at 5×10^4 cells/well in 0.6 ml of medium, were plated into 24-well inserts (Coring, 8 μm pore size) in duplicates. The lower chamber was filled with 0.6 ml of serum free EBM medium containing 100 ng/ml […] (rh)VEGF (R&D) After incubation for 16 h at 37° C., the cells were fixed by methanol and stained with eosin and hemotoxlin. Cells on the upper side of the transwell membrane were removed by cotton swab. Cells migrating to the lower side of membrane were counted.
2.4 hNC-1 inhibits endothelial cells migration. Endothelial cell migration is an important step in new blood vessel formation and tumor angiogenesis. To evaluate the effect of hNC-1 on endothelial cell migration, rhVEGF has been used to induce HUVECs migration in a transwell assay. The migration of cells has been monitored and quantified Cells migrating across the membrane were stained with blue-purple stain (FIG. 3B(a)) and counted.

Data set [6] is described as follows: Stability in serum or cell culture media. The following applies: longer periods of time, even at 4° C. Format: in vitro ADME. The source says: The invention also relates to a method for producing the protein oligomer or peptide oligomer or fusion protein of the invention, comprising (a) culturing a host cell comprising a nucleic acid encoding the protein oligomer or peptide oligomer or fusion protein of the invention, preferably under serum-free conditions, (b) obtaining from the host cell of step (a) the protein oligomer or peptide oligomer or fusion protein, and, optionally, (c) storing the protein oligomer or peptide oligomer or fusion protein, preferably under serum-free conditions. […] Therefore, it is advantageous to produce and keep the protein oligomer or peptide oligomer of the invention under serum-free conditions.
The earliest condition media employed for endostatin isolation was continuously kept at 4° C. for a long period of time (at least a month) prior to final purification step. Presence of fetal calf serum in the media can cause degradation of NC-1. Confirmation of this hypothesis was established by another group in the inventor's laboratory a year later, employing the same mouse tumor cell line (Wen et al., loc. cit.). […] Consequently, the earlier observation of an endostatin size protein being the only product following HPLC purification, strongly supports the inventor's hypothesis that NC-1 was completely digested to an endostatin size molecule after prolonged incubation at 4° C. […]

Data set [7] deals with T1, fibronectin. Description: Elisa, binding to fibronectin. The following applies: proteins coated at 10 μg/ml; fibronectin as ligand at the same concentration. The protocol: Coating of proteins were done in PBS at concentration of 10 μg/ml. Fibronectin served as a ligand at the same concentration. All buffers contained 2% BSA, 0.1% Tween-20.
Three protein constructs human Fc (control), dimeric human (h)Fc-Endostatin and hFc-VEGF were employed. […] Artificial endostatin dimer was generated by introducing a single mutation in amino acid position 7 of endostatin (changing glutamine to cysteine) in the recombinant Fc-endostatin. Upon digestion of this mutant protein by enterokinase, endostatin dimer is produced, linked by a disulfide bond (Kuo et al., loc. cit.).

Data set [8] relates to HUVECs. The experiment in a line: Immunofluorescence, endothelial cell surface binding. Type of data set: cell-based, human. The protocol: HUVECs were incubated with Fc-endostatin and detected with Alexa 488 IgG or human NC-1 (hNC-1) trimer and detected by anti-His tag monoclonal antibody.
1.5 Immunocytochemistry. HUVECs were plated and grown on cover slips. […] The slips were incubated in the blocking buffer (2% BSA PBS) for 30 min. For hFc-endostatin or hFc groups, the slides were incubated with Alexa 488 antihuman IgG for imaging. For hNC-1 or IgG groups, the slides were incubated with mouse anti-His-tag monoclonal antibody, then probed by Alexa 488 anti-mouse IgG. Anti-fibronectin antibody (R&D) was used for secondary staining for all slides and probed by Alexa 594 anti-goat IgG and imaged by confocal-microscopy. DAPI counterstaining of nuclei is shown in blue.
2.3 Binding of oligomeric hFc-endostatin and hNC-1 to HUVECs. Immunoflourescence technique was employed to detect endothelial cell surface binding of oligomeric endostatin and NC-1.

T1 sequence (P02751 32-2477): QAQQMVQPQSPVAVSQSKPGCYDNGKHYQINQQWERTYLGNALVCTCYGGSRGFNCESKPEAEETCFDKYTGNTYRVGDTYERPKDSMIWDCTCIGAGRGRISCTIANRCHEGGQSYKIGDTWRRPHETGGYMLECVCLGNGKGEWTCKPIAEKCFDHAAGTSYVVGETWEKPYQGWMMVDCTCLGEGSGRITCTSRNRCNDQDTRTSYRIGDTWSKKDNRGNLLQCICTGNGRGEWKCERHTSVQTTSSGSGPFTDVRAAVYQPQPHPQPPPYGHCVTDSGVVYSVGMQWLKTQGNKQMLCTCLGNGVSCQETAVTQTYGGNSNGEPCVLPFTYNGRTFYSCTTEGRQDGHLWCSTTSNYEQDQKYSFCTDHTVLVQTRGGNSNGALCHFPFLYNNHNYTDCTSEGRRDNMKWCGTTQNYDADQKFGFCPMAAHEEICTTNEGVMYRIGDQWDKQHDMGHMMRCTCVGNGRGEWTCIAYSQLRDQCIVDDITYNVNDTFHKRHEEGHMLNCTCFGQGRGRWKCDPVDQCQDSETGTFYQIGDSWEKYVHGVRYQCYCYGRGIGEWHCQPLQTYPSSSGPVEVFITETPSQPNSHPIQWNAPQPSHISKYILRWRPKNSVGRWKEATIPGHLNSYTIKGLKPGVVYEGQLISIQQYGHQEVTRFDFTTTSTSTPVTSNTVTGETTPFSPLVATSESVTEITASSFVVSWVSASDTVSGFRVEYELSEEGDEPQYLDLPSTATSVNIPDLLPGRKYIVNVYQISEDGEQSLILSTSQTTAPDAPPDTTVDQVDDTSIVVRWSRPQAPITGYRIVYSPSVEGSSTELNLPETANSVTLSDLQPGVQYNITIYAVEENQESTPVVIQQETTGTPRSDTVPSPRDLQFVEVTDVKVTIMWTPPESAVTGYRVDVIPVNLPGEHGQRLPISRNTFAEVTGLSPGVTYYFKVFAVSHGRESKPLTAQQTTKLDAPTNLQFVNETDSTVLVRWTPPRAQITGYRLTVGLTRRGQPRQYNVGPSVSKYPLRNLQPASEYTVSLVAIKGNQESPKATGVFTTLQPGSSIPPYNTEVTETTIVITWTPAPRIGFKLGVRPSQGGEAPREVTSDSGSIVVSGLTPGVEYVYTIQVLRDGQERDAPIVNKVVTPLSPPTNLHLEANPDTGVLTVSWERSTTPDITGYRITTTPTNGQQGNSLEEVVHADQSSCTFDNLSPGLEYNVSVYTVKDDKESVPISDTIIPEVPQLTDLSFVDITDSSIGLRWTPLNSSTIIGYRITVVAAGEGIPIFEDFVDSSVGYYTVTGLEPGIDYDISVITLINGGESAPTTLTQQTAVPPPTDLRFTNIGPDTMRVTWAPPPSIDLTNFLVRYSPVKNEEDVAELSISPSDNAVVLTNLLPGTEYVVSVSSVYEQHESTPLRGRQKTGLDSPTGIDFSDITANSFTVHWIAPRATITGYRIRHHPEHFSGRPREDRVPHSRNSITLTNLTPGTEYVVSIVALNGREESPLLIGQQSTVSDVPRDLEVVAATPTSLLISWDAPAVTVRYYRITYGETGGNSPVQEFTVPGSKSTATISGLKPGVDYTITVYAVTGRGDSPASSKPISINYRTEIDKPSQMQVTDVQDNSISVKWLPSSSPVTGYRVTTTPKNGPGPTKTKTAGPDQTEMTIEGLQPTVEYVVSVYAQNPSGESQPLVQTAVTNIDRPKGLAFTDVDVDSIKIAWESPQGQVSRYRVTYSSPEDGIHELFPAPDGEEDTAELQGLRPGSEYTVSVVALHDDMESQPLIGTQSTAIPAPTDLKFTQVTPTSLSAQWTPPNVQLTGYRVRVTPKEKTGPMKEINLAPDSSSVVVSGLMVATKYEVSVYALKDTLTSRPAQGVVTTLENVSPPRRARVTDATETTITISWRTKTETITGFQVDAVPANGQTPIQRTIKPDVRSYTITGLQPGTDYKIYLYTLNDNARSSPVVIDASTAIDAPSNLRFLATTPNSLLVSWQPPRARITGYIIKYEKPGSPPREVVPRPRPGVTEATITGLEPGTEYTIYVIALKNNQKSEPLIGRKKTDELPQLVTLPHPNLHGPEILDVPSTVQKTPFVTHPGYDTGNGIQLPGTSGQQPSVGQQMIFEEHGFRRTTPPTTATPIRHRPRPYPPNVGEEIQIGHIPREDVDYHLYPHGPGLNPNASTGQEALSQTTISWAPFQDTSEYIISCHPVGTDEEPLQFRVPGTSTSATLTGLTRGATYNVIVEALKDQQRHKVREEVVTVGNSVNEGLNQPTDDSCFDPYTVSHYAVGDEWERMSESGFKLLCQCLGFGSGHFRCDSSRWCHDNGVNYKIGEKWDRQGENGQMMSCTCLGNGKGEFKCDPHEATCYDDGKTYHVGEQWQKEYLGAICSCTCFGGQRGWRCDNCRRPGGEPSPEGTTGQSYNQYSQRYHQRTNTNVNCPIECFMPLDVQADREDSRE

B1: Endostar: recombinant human endostatin from Escherichia coli with an additional nine-amino acid sequence forming a his-tag (protein, UniProt P39060 1572-1754, looked up)
Endostatin: HSHRDFQPVLHLVALNSPLSGGMRGIRGADFQCFQQARAVGLAGTFRAFLSSRLQDLYSIVRRADRAAVPIVNLKDELLFPSWEALFSGSEGPLKPGARIFSFDGKDVLRHPTWPQKSVWHGSDPNGRRLTESYCETWRTEAPSATGQASSLLGGRLLGQSAASCHHAYIVLCIENSFMTASK
modifications: Endostatin nine-residue his-tag
Turning to B1, the “Median time to tumor progression” value with solid tumors (7.5 mg/m^2/day i.v. more than 7 days, with chemotherapy) is on record as 3.0 months. In the data set on solid tumors (human, in vivo), the “toxicity combined with chemotherapy” value is given as “tolerable” and the treatment related death result is “No treatment related death”. Further, in the data set on solid tumors (of 42 patients), the patients remaining stable entry is reported as “twenty-one” and the “patients with progressive disease” value is listed as “nineteen”. Further, in the data set on solid tumors (with chemotherapy), the Median overall survival was 30.0 months, the complete response entry is reported as “No complete response”, the “one year survival rate” value was 81.0% and the “patients with partial response” value is “Two of 42”. For the same molecule, in data set [1], the “VEGF-stimulated proliferation, migration, and tube formation of HUVECs” value is “suppressed”. In the data set with rat aortic rings, the “microvessel sprouting from rat aortic rings” value is reported as “blocked microvessel sprouting”. In addition, in [2], the “formation of new capillaries from pre-existing vessels” value is “inhibit the formation of new capillaries”.

B2: hNC-1: naturally occurring trimeric NC-1 domain of human collagen 18: association domain, hinge region and endostatin domain (protein)
chain: SGVRLWATRQAMLGQVHEVPEGWLIFVAEQEELYVRVQNGFRKVQLEARTPLPRGTDNEVAALQPPVVQLHDSNPYPRREHPHPTARPWRADDILASPPRLPEPQPYPGAPHHSSYVHLRPARPTSPPAHSHRDFQPVLHLVALNSPLSGGMRGIRGADFQCFQQARAVGLAGTFRAFLSSRLQDLYSIVRRADRAAVPIVNLKDELLFPSWEALFSGSEGPLKPGARIFSFDGKDVLRHPTWPQKSVWHGSDPNGRRLTESYCETWRTEAPSATGQASSLLGGRLLGQSAASCHHAYIVLCIENSFMTASK
modifications: left off: small tags and cut ends
notes: naturally occurring trimeric NC-1 domain of human collagen 18: association domain, hinge region and endostatin domain
For B2, in the data set with fibronectin [3], the “equilibrium binding constant to fibronectin (Biacore)” value is recorded as “High affinity constants”. Besides, the “inhibition of tumor growth” value in data set [4] (end of experiment, s.c. once a day, hNC-1 100 μg/mouse, endostatin 100 and 500 μg/mouse) was 67%. In addition, the “anti-tumor activity compared with endostatin” value in data set [4] (low dose of NC-1 vs 5-fold higher dose of endostatin) is “anti-tumor activity similar to high dose of endostatin”. The “anti-migratory potency among endostatin monomer, dimer and NC-1” value with HUVECs [5] is “most potent anti-migratory agent”. Also, the “VEGF-induced endothelial cell migration” value with HUVECs [5] (100 ng/ml rhVEGF, 16 h) is “inhibited VEGF-induced endothelial cell migration”. In addition, in the data set on HUVECs [5] (100 and 200 ng/ml of hNC-1), the endothelial cell migration entry is reported as “less migration”. Further, in the data set with HUVECs [5] (different concentrations of hNC-1), the “dose effect on endothelial cell migration” value was “U-shaped curve”. Also, the “stability in serum or cell culture media” value in [6] was “susceptible to degradation”. For the same molecule, the “binding to fibronectin (Elisa)” value in the data set with fibronectin [7] is reported as “bound fibronectin”. The results for the “binding to HUVECs” value with HUVECs [8] (cells cultured only for 24 hours) and in the data set with HUVECs [8] (incubation time prolonged to 72 hours) were “poor binding” and “significant binding”, respectively.
